Experimental data published in article PMC2886305 (Molecular cell, 2010).
One block for each molecule: values may come before it. Where no end group is shown, it is not given here.

Legend:
[1] = molecular target: H3K9me3 peptide of the fluorescence anisotropy assay; assay: fluorescence polarisation
[2] = test system: CBX7 chromodomain (CBX7CD); assay: fluorescence anisotropy; conditions: not given in material (buffer, salt, pH and temperature in supplement)
[3] = test system: CBX7 at INK4b/ARF/INK4a locus, PC3 cells; assay: ChIP of CBX7 occupation in PC3 cells treated with α-amanitin; format: cell-based, human; conditions: whole PC3 cell treatment, 10 μg/ml, relative to histone H3
[4] = test system: RNA Pol II (ANRIL transcription), PC3 nuclei; assay: In vitro transcription of ANRIL from PC3 whole nuclei; format: cell-based, human; conditions: [α-32P]-UTP incorporation
CBX7CD = molecular target: T1, CBX7CD (Mus musculus, UniProt Q8VDS3); format: binding; conditions: fluorescence anisotropy, fluorescein-labeled peptide; measured in triplicate
T1 sequence (Q8VDS3 11-69 limits assumed): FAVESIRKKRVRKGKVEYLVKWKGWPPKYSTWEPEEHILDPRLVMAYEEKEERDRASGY

CBX7 chromodomain = molecular target: T2, CBX7 chromodomain ( (human or mouse cDNA cloned), UniProt Q8VDS3 1-71); assay: fluorescence polarisation
T2 sequence: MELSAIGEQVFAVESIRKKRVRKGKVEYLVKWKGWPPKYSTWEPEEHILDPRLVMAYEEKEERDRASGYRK

[5] = test system: INK4b/ARF/INK4a locus, PC3 cell nuclei; assay: Quantitative ChIP of PC3 nuclei after RNase A; format: cell-based, human
[6] = RNase A treatment of PC3 cell nuclei

Kd [1]: 16.5 µM
Molecule: CBX7 chromodomain (from UniProt Q8VDS3 1-71) (domain or fragment)

Molecule: ANRIL loop A RNA
Kd [2]: 13.7 µM

Molecule: ANRIL loop B RNA
Kd [2]: 30.2 µM

Molecule: α-amanitin
CBX7 levels (ChIP) [3]: depleted levels of CBX7
sensitivity of nascent ANRIL transcription [4]: shows sensitivity to α-amanitin

Molecule: ANRIL loop C RNA
Kd [2]: 14.6 µM

Kd (CBX7CD): 16.5 ± 0.8 µM
Molecule: H3K9me3: H3K9me3 peptide (histone H3 methylated at lysine 9)

Kd (CBX7 chromodomain): 59 ± 4.7 µM
B1: fluorescein-labeled H3K27me3 peptide (peptide)
chain: APRKQLATKAARK(Me3)SAP
modifications: also: fluorescein label (position not given here)

B2: RNase A: ribonuclease A (protein, UniProt P61823 27-150, looked up)
Ribonuclease pancreatic: KETAAAKFERQHMDSSTSAASSSNYCNQMMKSRNLTKDRCKPVNTFVHESLADVQAVCSQKNVACKNGQTNCYQSYSTMSITDCRETGSSKYPNCAYKTTQANKHIIVACEGNPYVPVHFDASV
site occupation by CBX7, PHC2, Bmi1 and Suz12 [5, 6]: dramatically reduced
total levels of H1 and H3 [5, 6]: remained about the same
levels of trimethylated H3K27 and ubiquitinated H2AK119 ([5]; RNase A treatment, at CBX7 occupation sites): greatly reduced
